The values below come from patent US20130045219A1 (UCB, published 2013).

Like-named read-outs stand apart in the source and are kept apart here.

T1: CD154 expressed on D1.1 Jurkat cells (UniProt P29965 1-261, limits assumed)
T1 sequence (looked up): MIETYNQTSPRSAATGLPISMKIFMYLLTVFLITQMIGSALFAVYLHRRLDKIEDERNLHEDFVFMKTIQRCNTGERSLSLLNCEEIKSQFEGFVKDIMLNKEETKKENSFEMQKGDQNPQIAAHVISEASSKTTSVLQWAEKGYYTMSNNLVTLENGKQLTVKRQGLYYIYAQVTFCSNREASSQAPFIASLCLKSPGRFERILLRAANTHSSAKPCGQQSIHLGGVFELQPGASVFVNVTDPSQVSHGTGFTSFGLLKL

T2: Myc-tagged CD154 (UniProt P29965 116-261, limits assumed)
T2 construct: Captured on the ELISA plate by anti-Myc antibody 9E10; The order of tag and CD154 is not known; also called CD40L; not shown: Myc tag
T2 sequence (looked up): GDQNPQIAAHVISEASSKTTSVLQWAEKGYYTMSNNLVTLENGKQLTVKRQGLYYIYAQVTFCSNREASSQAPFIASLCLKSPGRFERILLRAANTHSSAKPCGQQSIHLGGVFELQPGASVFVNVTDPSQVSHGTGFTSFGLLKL

B1: anti-CD154 antibody 381 Fab′ (Fab, V domains shown)
VH: EVPLVESGGGLVQPGRSMKLSCVASGFTFSDYYMAWVRQAPKKGLEWVASISYEGSSTYYGDSVKGRFTVSRDIAKSTLYLQMHSLKSEDTAIYYCARHDDSPGYYFDYWGQGVMVTVS
VL: DIQMTQSPTSLSASLGETVSIECLAGEDISNVLAWYQQKSGGSPQLLIYAANRLQDGVPSRFSGSGSGTRYSLKISGMRPEDEADYFCQQTFRYPLTFGSGTKLELK
B2: soluble human CD154 protein (extracellular domain) (ligand)
chain: T2 sequence (looked up)
notes: also called sCD154; recombinant extracellular domain of human CD154
B3: 342 Fab′ (Fab, V domains shown)
VH: EVQLVESGGGLVQPGGSLRLSCAVSGFSSTNYHVHWVRQAPGKGLEWMGVIWGDGDTSYNSVLKSRFTISRDTSKNTVYLQMNSLRAEDTAVYYCARQLTHYYVLAAWGQGTLVTVSS
VL: DIQMTQSPSSLSASVGDRVTITCRASEDLYYNLAWYQRKPGKAPKLLIYDTYRLADGVPSRFSGSGSGTDYTLTISSLQPEDFASYYCQQYYKFPFTFGQGTKVEIKR
B4: humanized 342 Fab, graft gL4gH1 (Fab, V domains shown)
VH: B3 VH
VL: B3 VL

The target in test [1] is T1, CD154 expressed on D1.1 Jurkat cells. The test is described as follows: cell-based or functional assay.
For test [2], the target named is B2. Briefly: Biacore (SPR): antibody or Fab' captured on immobilized anti-human IgG (Fc- or Fab'-specific) F(ab')2, recombinant extracellular domain of human CD154 titrated over it (Example 4); chimaeric Fab'. As for the experimental part: (§1) Catalogue Number: BR-1001-88, Biacore AB, Uppsala, Sweden. Buffer stored at 4° C. Immobilization buffer is Acetate 5.0 (being 10 mM sodium acetate pH 5.0). Catalogue number: BR-1003-51, Biacore AB, Uppsala, Sweden. Buffer stored at 4° C. Ligand capture: Affinipure F(ab′)₂ fragment goat anti-human IgG, Fab′ fragment specific (Catalogue number: 109-006-097) or Fc fragment specific (Catalogue number: 109-006-098), Jackson ImmunoResearch Inc (Pennsylvania, USA). Reagents stored at 4° C. […] Analyte: Recombinant extracellular domain of human CD154. Material was prepared at 2 mg/mL (40 μM) in phosphate-buffered saline, stored at 4° C., and diluted in HBE-EP running buffer for the assays. […] Regeneration Solution: 40 mM HCl prepared by dilution with distilled water from an 11.6 M stock solution (BDH, Poole, England. Catalogue number: 101254H). 5 mM NaOH prepared by dilution with distilled water from a 50 mM stock solution. Catalogue number: BR-1003-58, Biacore AB, Uppsala, Sweden. Assay Method: BIA (Biamolecular Interaction Analysis) was performed using a Biacore® 3000 (Biacore AB). Affinipure F(ab′)₂ fragment goat anti-human IgG, Fc- or Fab′-fragment specific (Jackson ImmunoResearch) were immobilized on a CM5 Sensor Chip via amine coupling chemistry to a capture level of ≈6000 response units (RUs). HBS-EP buffer (10 mM HEPES pH 7.4, 0.15 M NaCl, 3 mM EDTA, 0.005% Surfactant P20, Biacore AB) was used as the running buffer with a flow rate of 10 μl/min. Anti-CD154 antibodies or Fab fragments were used at concentrations such that, once captured by the immobilized anti-human IgG-Fc (or anti-human IgG Fab′) surface, gave a signal of ≈200 RUs. Human CD154 was titrated over the captured antibody, at various concentrations. 90 μL of CD154 was injected over the surface (association phase), followed by a 240 second dissociation phase, all at a flow rate of 30 μl/min. […] Background subtraction binding curves were analyzed using the BIAevaluation software (version 3.2) following standard procedures. Kinetic parameters were determined from the fitting algorithm.
(SPR reads the build-up and loss of mass on a sensor chip optically.)

In test [3] the target is T1, CD154 expressed on D1.1 Jurkat cells. The test is described as follows: flow cytometry: inhibition of the binding of hCD40-mFc-PE to CD154-expressing D1.1 Jurkat cells by serially diluted chimaeric Fab' (Example 5). As for the experimental part: (§2) A flow cytometry-based assay was used to assess the binding of labeled CD40 to CD154-expressing D1.1 cells. D1.1 Jurkat cells (American Type Culture Collection) were maintained in RPMI 1640 medium (Gibco, 31870-025)) containing 10% (v/v) fetal calf serum (FCS), 2 mM glutamine (Invitrogen, 23030024), 1 mM sodium pyruvate (Invitrogen, 11360-039), 1% (v/v) D-(+)-glucose (Sigma, G8769) & 10 mM HEPES (Sigma, H0887). At time of assay, 100,000 D1.1 cells were incubated in 100 μL RPMI 1640 medium+10% FCS, in the presence or absence of serially diluted anti-CD154 antibody for 15 minutes at room temperature. 5 μL of a 1:75 dilution of hCD40-mFc-PE (Alexis Corp, ANC-504-050) was then added and incubated for a further 30 minutes at room temperature. After washing twice in phosphate-buffered saline (PBS) containing 1% (w/v) bovine serum albumin (BSA fraction V, Serologicals Proteins Inc, 81-068-5) and 0.02% (w/v) sodium azide (BDH, 103692K), cells were resuspended in 200 μL PBS/1% BSA/0.02% sodium azide and flow cytometry performed on a Becton Dickinson FACScan. The values for geometric mean fluorescence (FL2) were assessed in all cases.
In general terms: A flow cytometer gives signals particle by particle.

For test [4], the target named is T3, CD40hFc (human CD40 fusion protein) (human, UniProt P25942 21-193, limits assumed).
T3 construct: not shown: human Fc (hFc)
Briefly: Biacore (SPR), sequential injections: CD40hFc captured, then soluble CD154 (ECD); concentrations not given (Example 10).

For test [5], the target named is B2. Briefly: Biacore (SPR): antibody or fragment captured on immobilized anti-human IgG (Fc- or Fab'-specific) F(ab')2, recombinant extracellular domain of human CD154 titrated over it (Example 4). As for the experimental part: as §1
The target of test [6] is T1, CD154 expressed on D1.1 Jurkat cells. Briefly: cell-based or functional assay. This is another data set of the same source.
Test [7] has as its target T2, Myc-tagged CD154. Briefly: ELISA: Myc-tagged CD154 captured on anti-Myc antibody 9E10, biotin 342 Fab' titrated, streptavidin-HRP detection (Example 14). The protocol:
In this assay, anti-Myc antibody 9E10 was coated onto an ELISA plate. Myc-tagged CD154 was captured by this antibody. […] The plate was washed and the amount of biotinylated 5c8 Fab bound was determined using streptavidin HRP as a secondary. The signal was graphed and fit using a either a one site binding hyperbola or a two site binding hyperbola curve fit in Prism software (Graph Pad).
A titration of biotin 5c8 Fab′ on CD154 to determine the appropriate concentration for cross-blocking analysis was also performed (FIG. 29B).
Background: An ELISA detects its analyte on a solid surface through an enzyme-linked reagent.

For test [8], the target named is T1, CD154 expressed on D1.1 Jurkat cells. Briefly: flow cytometry: inhibition of the binding of hCD40-mFc-PE to CD154-expressing D1.1 Jurkat cells by serially diluted antibody (Example 5). As for the experimental part: as §2
For test [9] the target is unchanged. The test is described as follows: flow cytometry competition binding assay: serially diluted antibody against biotinylated 342 Fab on CD154-expressing D1.1 Jurkat cells, streptavidin-R-phycoerythrin detection (Example 6). As for the experimental part:
A flow cytometry-based assay was used to assess the binding of anti-CD154 antibody to CD154-expressing D1.1 cells. D1.1 Jurkat cells (American Type Culture Collection) were maintained in RPMI 1640 medium (Gibco, 31870-025) containing 10% (v/v) fetal calf serum (FCS), 2 mM glutamine (BioWhittaker, 17-605E) and […] (Mediatech, 30002107). […] The cells were washed three times in FACS buffer with centrifugation at 290×g for 3 minutes in between washes. A 1:500 dilution of streptavadin-R-phycoerythrin conjugate (Jackson Immunoresearch, 016-110-084) in […] FACS buffer was added and the cells were incubated for one hour at 4° C. The cells were washed once and fixed in PBS with 3% formaldehyde at room temperature for 10 minutes. The cells were resuspended in FACS buffer and run on a FacsCalibur (BD). The values for geometric mean fluorescence (FL2) were assessed in all cases.

Test [10] addresses T4, CD40:sCD154 complex (human, UniProt P25942 21-193, limits assumed).
T4 construct: also called CD40:CD154 complex; not shown: human Fc (hFc)
Briefly: Biacore (SPR): CD40hFc captured, ECD bound, then buffer or Fab injected; concentration not given (Example 10).

The target in test [11] is B2. The test is described as follows: Biacore; purified Fab captured on the chip, human CD154 extracellular domain as analyte.

T4 sequence (P25942 21-193 limits assumed, one chain of several): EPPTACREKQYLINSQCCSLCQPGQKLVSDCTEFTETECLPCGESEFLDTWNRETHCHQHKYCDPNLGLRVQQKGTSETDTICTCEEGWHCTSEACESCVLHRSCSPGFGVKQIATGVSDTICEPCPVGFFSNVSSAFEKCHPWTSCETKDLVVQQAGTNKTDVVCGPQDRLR
T3 sequence (P25942 21-193 limits assumed): as the sequence (P25942 21-193 limits assumed, one chain of several) above

As usually defined, the Kd is the constant that tells how readily two partners part at equilibrium. As usually defined, the IC50 is the point on the concentration scale where inhibition reaches its midpoint. Higher therefore signals weaker potency. Consider B1, for which the “IC50 of inhibition of ICAM-1 (CD54) upregulation on CD40-expressing Ramos B cells co-cultured with CD154-expressing D1.1 Jurkat cells” value in test [1] came to 0.1 µg/mL. In addition, the Kd in [2] came out at 0.005 nM. The same molecule came in with an IC50 in [3] of 0.022 µg/mL.
In the case of B2, in test [4], the binding result was “binds”.
By EC50 (read off the curve) is commonly meant the concentration that produces a half-maximal response. A low value points to higher potency in that assay. Turning to B3, the Kd in test [5] came out at 0.028 nM. Besides, the “IC50 of inhibition of ICAM-1 (CD54) upregulation on CD40-expressing Ramos B cells co-cultured with CD154-expressing D1.1 Jurkat cells” value in [6] is 0.04 µg/mL. Also, the “EC50 (read off the curve)” value in test [7] is approximately 0.1 nM. The IC50 in test [8] was found to be 0.012 µg/mL; in test [9], 0.024 nM. In [10], the binding result was “no binding”.
Usually koff stands for a measure of how fast the partners let go of each other. Read a low koff as slow dissociation. For orientation: kon means a measure of how fast the partners come together. A low value points to slow association. In test [11], B4 yielded a Kd of 0.00455 nM, a koff of 6.97e-05 s⁻¹ and a kon of 1.53e+07 M⁻¹ s⁻¹.
